Assay results from patent US20190092819A1 (published 2019).

Target: Recombinant human DSG2 protein (desmoglein 2), soluble (human) (UniProt Q14126)
Assay: method not named at this place; presumably the SPR of FIG. 7 (noDD forms)

Recombinant human DSG2 protein (desmoglein 2), soluble (human), sequence (Q14126 50-609 limits assumed): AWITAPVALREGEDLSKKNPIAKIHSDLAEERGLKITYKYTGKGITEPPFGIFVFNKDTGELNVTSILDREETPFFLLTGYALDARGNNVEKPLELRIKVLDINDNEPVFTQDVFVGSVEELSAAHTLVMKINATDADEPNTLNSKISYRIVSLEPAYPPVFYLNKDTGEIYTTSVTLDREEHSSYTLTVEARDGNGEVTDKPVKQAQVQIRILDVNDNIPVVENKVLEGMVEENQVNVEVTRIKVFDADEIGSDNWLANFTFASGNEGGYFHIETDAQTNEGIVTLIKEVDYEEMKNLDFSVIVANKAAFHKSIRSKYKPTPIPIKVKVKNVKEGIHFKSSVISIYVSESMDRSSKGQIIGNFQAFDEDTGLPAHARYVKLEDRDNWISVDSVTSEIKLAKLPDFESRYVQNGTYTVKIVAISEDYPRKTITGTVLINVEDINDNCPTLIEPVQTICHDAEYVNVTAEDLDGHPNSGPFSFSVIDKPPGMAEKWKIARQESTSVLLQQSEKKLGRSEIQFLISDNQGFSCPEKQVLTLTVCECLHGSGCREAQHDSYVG

Q: For “JO-4 (dimeric affinity-enhanced Ad3 fiber knob mutant Y250F) (ligand)”, which Kd is on record?
A: 11.4 nM
